According to the nanobody polyreactivity screen of Harvey et al. (2022):

Assay: yeast display, Sf9 membrane polyspecificity reagent, FACS + sequencing; frameworks hold sequencing errors
Summary of the method: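 Using colony PCR, genes from sorted yeast display clones were amplified, then sequenced on MiSeq at 2 × 250 and filtered by CDR length. The clones had been stained with 10% biotinylated, detergent-solubilized Sf9 membrane reagent for 1 hour at 4 °C and sorted by FACS into low and high (top ~1%) gates on anti-HA and streptavidin fluorescence. Polyreactivity labels come from the gate of origin.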

| Sequence | polyreactivity (PSR sort gate) |
| --- | --- |
| QFQLVESGGALVQAGGSLRLSCAASGLIFGRYAMGWYRQAPGNERELVAAISWRGGSTFYADSVKGRFTISRDNAKNTVYLQMNSLKPEDTAVYYCNARYYPARVRTYDHWGQGTQVTVSS | high polyreactivity |
| QFQLVESGGGFVQAGGSLRLSCAASGRIFYRYAMGCYSQAPGKERELVAAITWRGGSTYYADSVKGRFTISRDNANNTVYLQMNSLKPEDTAVYYCAAAAYGVPWRSYLGVFKSHMDYWGQGTQVTVSS | high polyreactivity |
| QFQLVESGGGLDQAGGSLRISCAPSGITFEYYTMGLYRQAPGKEIEFVAAITQGGGTTYYADSVKGRFTISRDNEKNTVYLQMNSLKPEDTAVYYCAAYVGYLLLYYPTYYYWGQGTQVTVSS | low polyreactivity |
| QFQLVESGGGLDQAGGSLRLICAASGITFDTNLMGWYRQAPGKERELVAAISARGGSTYYADSVKGRFTISRDNAKNTVYLQMNSLKPEDTAVYYCNAVIRPWQSYYYWGQGTQVTVSS | high polyreactivity |
| QFQLVESGGGLVHAGGRLRLSCAASGITFVTYAMGWYRQAPGKERELVAAISRSGGRPYYADSVKGRFTISRDNATNTDYLQMNSLKPEDTAVYYCAAERKNKYDYWGQGTQVTVSS | high polyreactivity |
| QFQLVESGGGLVHAGGSLRLICAASGRILYKYAMGWYRQAPGKERELVAAISGSGGRTYYADSVKGRFTISRDNAKNTVYLQMNSLKPEDTPVYYCAAVHPFRHVMYDYWGQGTQVTVSS | low polyreactivity |
| QFQLVESGGGLVQAGGRLRLSCAASGRIFQLYTMGWYRQAPGKEREFVASISFITGRTYYADSVKGRFTISRDNAKKTVYLQMNSLKPEDTAVYYCNTRYDGGFDSWGQGTQVTVSS | high polyreactivity |
| QFQLVESGGGLVQAGGSIRLSCAASGSTFTIYAMGWYRQAPGKERELVAAISGTGGTKYADSVKGRFTISRDNAKNTVYLQMTSLKPEDTAVYYCAARYMLWDGDSWTEFDYWGQGTQVTVSS | low polyreactivity |
| QFQLVESGGGLVQAGGSLRLRCAASGLIIKKYTMGWYRQAPGKEMELVASISKSGGSTYYADSVKGRFTISRDNAKNTVYLQMNSLKPEDTAVYYCNRVTHYIRFDYWGQGTQVTVSS | low polyreactivity |
| QFQLVESGGGLVQAGGSLRLSCAASGFIFQEYAMGWYGQAPGKERELVAAITSGGSTNYADSVKGRFTISRDNAKNTVYLQMNSLKPEDTAVYYCNVDSPDYYYDYDYWGHGTQVTVSS | low polyreactivity |
| QFQLVESGGGLVQAGGSLRLSCAASGFIFRYNAMGWYRQAPGKERELVAAIDSGGSTYYADSVKGRFTISRDNAKNTVDLQMNSLKPEDTAVYYCYAVHEASYSGVDYWGQGTQVTVSS | low polyreactivity |
| QFQLVESGGGLVQAGGSLRLSCAASGFTFAVYAMGWYRQAPWKERELVAAISRSGTRTYYADSVKGRFTISRDNAKNTVYLQMNSLKPVDTAVYYCAADKYRHGYDYWGQGTQVTVSS | low polyreactivity |
| QFQLVESGGGLVQAGGSLRLSCAASGGIFDTNAMGWYRQATGKDRELVAAITVRGGSTYYADSVKGRFTISRDNAKNTVYLQMNSLKPEDTAVYYCATRSPKRAAVRYNYWGQGTQVTVSS | high polyreactivity |
| QFQLVESGGGLVQAGGSLRLSCAASGGIFYTYAMGWYRQAPAKERAFVAAISRSGGRTRYADSVKGRFTISRDNAKNTVYLQMNSLKQEDTAVYYCAARVIGAGLLKYDKWGQGTQVTVSS | high polyreactivity |
| QFQLVESGGGLVQAGGSLRLSCAASGGTFPYNAMGWYRQAPGKERELVAAISSSGTSTYYADSVKGRFTISRDNAKNTVYLQMNSLKPEDTAVYYCNDYFKRYDYWGQGTQVTVSS | high polyreactivity |
| QFQLVESGGGLVQAGGSLRLSCAASGGTFYVNDMGWYRQAPGKERELVATITYSGTSTYYADSVKGRFTISRDNAKNTVYLQMNSLKPEDTAVYYCATDVLLYFEPVNLDYWGQGTQVTVSS | low polyreactivity |
| QFQLVESGGGLVQAGGSLRLSCAASGIIFLENAMGWYRQAPGKEREFVAAISRSGGITYYADSVKGRFTISRDNAKNTVYLQMNSLKPEDTAVYYCAAVGRDRYRHSPQPLYDYWGQGTQVTVSS | low polyreactivity |
| QFQLVESGGGLVQAGGSLRLSCAASGITFSNYALGWYRQAPGKERELVAAISKRGGSTYYADSVKGRFTISRDNAKTTVDLQMNSLKPEDTAVYYCAADAYNPPYWVDPYDYWGQGTQVTVSS | high polyreactivity |
| QFQLVESGGGLVQAGGSLRLSCAASGLIFRRYAMGWYRQAPGKEREFVAAISWSGGSTYYADSVKGRFTISRDNAKNSVYLQINSLKPEDTGVSYFAAYDKSLYGSGYDYWGQGTQVTVSP | high polyreactivity |
| QFQLVESGGGLVQAGGSLRLSCAASGLIFVINAMGWYRQAPGKERELDATISSGVSTNYADSVKGRFTISRDNAKNTVYLQMNSLKPEDTAVYYCNKDGVVEVRFTVRQEYDYWGQGTQVTVSS | low polyreactivity |
| QFQLVESGGGLVQAGGSLRLSCAASGLTFSWYVMGWYRQAPGKERELVAAITNGGNTNYADSVKGRFTISRDNAKNTVYLQMNCLKPEDTAVYYCAARDPYTWPRSGSGYYEFDYWVQGTQVTVSS | low polyreactivity |
| QFQLVESGGGLVQAGGSLRLSCAASGNTFYGYARGWYRQAPGKDRELVATMTGSGGDTYYADSVKGRFTISRDNANYTVYLPMNSLKPEDTAVYYCNAVEYYGGYPGTDYSYLAYNYWGQGTKVTVSS | low polyreactivity |

| Sequence | polyreactivity (PSR sort gate) |
| --- | --- |
| QFQLVESGGGLVQAGGSLRLSCAASGRIFGIYAMGWDRQAPGKESELVATITDSDDSTYYADSVKGRFTISRDNAKNTVYLQMNSLKPEDTAVYYCATAFSYGGGAYDYWGQGTQVTVSS | low polyreactivity |
| QFQLVESGGGLVQAGGSLRLSCAASGRIFGRYSRGLYRQAPGKERELVAAITWLGTTYYADSVKGRFTISRDNAKNTVYLQMNSLKPEDTAVYYCATVVLLRIWGGYWGQGTQVTVSS | high polyreactivity |
| QFQLVESGGGLVQAGGSLRLSCAASGRIFGVNAMGWYRPAPGKERELVAAISYRGGHTYADSVKGRFTISRDNAKNTVYLQMNSLKPEDTAVYYCAARNRSSTGLGSRYGYWGQGTQVTVSS | high polyreactivity |
| QFQLVESGGGLVQAGGSLRLSCAASGRIFPGYAMGWYRQAPGKERELVAAISERGGSTYYADSVKGRFTISRDHAKNTVYLQMNSLKPEDTAVYYCAAIWRGGYNYWGQGTQVTVSS | low polyreactivity |
| QFQLVESGGGLVQAGGSLRLSCAASGRIFPQYAMGWSRQATGKERELVAGITSVGSTYYADSVKGRFTISRDNAKNTVYLQMNSLKPEDTAVYYCAAFYRGGDYWGQGTQVTVSS | high polyreactivity |
| QFQLVESGGGLVQAGGSLRLSCAASGRIFRGNAMGWYRQAPGKERELVAAILTGVSTYYADSVKGRFTISRDNAKNTVYLQMNSLKPEDTAVYYCAAERPSRRSGYEYWGQGTQVTVSS | low polyreactivity |
| QFQLVESGGGLVQAGGSLRLSCAASGRIFYSNAMGWYRQAPGKERELVAAISSSGGITYYADSVKGRFTISRDNAKNTVNLQMNSLKPEDSAVYYCAVDSRHYIRAFDHWGQGTQVTVSS | low polyreactivity |
| QFQLVESGGGLVQAGGSLRLSCAASGRTFIYYSMGWYRQAPGKERELVAAITRSGGSTNYADSVKGRFTISRDNSKNTVYIQMNSLKPEDTAVYYCAARFYGRRCIYGYWGQGTQVTVSS | high polyreactivity |
| QFQLVESGGGLVQAGGSLRLSCAASGRTFQHNVMGWYIQAPGKERELVASITCRGGSTYYADSVKGRFTISRDNAKNTVYLQMNSLKPEDTAVYYCAARNGFRRVRFDYWGQGTQVTVSS | low polyreactivity |
| QFQLVESGGGLVQAGGSLRLSCAASGRTFTYNAMGWYRQAPGKERELVAAINSGGSTNYADSVKGRFTISRDNAKNTVYLQMNSLKPEDTAVYYCNAGFGFGSSRYGTRYYYWGQGTQVTVSS | low polyreactivity |
| QFQLVESGGGLVQAGGSLRLSCAASGRTFVYYVMGWYRPAPGKERELVAAISRRGGSTYYADSVKGRFTISRDNAKNTVYLQMNSLKPEDTAVYYCAAQYYYAREDYWGQGTQVTVSS | high polyreactivity |
| QFQLVESGGGLVQAGGSLRLSCAASGSIFDSYYMGWYRQAPGKEREMVAAITSGGSTNYADSVKGRFTISRDNAKNTVYLQMNSLKPEDTAVYYCAAYYWYPVYYGYEYWGQGTQVTVSS | low polyreactivity |
| QFQLVESGGGLVQAGGSLRLSCAASGSIFHPYTMGWYRPAPGKERELVAAISWSGGNTNYADSVKGRFTISRDNAKNTVYLQMNSLKPEDTAVYYCNKATNLSGGYDSWGQGTQVTVSS | low polyreactivity |
| QFQLVESGGGLVQAGGSLRLSCAASGSIFKYYTMGRYRQAHGKEMELVAYISSGGSTKYADSVKGRFTISRDNAKNTVYLQMNSLKPEDTAVYYCAKRYYYFYPDYDYWGQGTQVTVSS | high polyreactivity |
| QFQLVESGGGLVQAGGSLRLSCAASGSIFPGYAMGWYRQAPGKERELVAAITVSGVSTYYADSVKGRFTISRDNEKNTVYLQMNSLKPEDTAVYYCARDNWQLYPSTWYDYWGQGTQVNVSS | high polyreactivity |
| QFQLVESGGGLVQAGGSLRLSCAASGSIFYGYAMGWYRQAPGKERELVARITGSGGDTSYADSVKGRFTISRDNAKNTVYLQMNSLKPEDTAVYYCNTDLYITYTLYTGSEYDYWGQGTQVTVSS | low polyreactivity |
| QFQLVESGGGLVQAGGSLRLSCAASGSIFYTYTMGWYRQAPGKDRVLVAAISFSDGDTYYADSVKGRFTISRDNAKNTVYLQMNSLKPEDTAVYYSNAYVYLPNYPYDYWGQGTQVTVSS | low polyreactivity |
| QFQLVESGGGLVQAGGSLRLSCAASGSIITPYAMGWYRPAPGKERELVAAISGRGGSTYYADSVKGRFTISRDNAKNTVYLQMNSLKPEDTAVYYCAARQYFRWYGWSMDYWGQGTQVTVSS | high polyreactivity |
| QFQLVESGGGLVQAGGSLRLSCAASGSTFDTYAMGWYRQAPGKERDLFAAISGSGVRTYYADSVKGRFTISRDNAKNTVYLQMNSLKPEDTAVYYSAAAGSGYGGKQFDHGFNYWGQGTQVTVSS | high polyreactivity |
| QFQLVESGGGLVQAGGSLRLSCAASGSTFPRYAMGWYRPAPGKERELVAAISRSGTSTYYADSVKGRFTISRDNAKNTVYLQMNSLKPEDTAVYYCAAEYHPRVLYPNWYDYWGQGTQVTVSS | low polyreactivity |
| QFQLVESGGGLVQAGGSLRLSCAASGSTFRHNAMGWYRQASGKEREWVATIRTSGGTTYYADSVKGRFTISRDNAKNTVYLQMNSLKPEDTAFYYCAKDALFIDGGGGYDYWGQGTQVTVSS | low polyreactivity |
